Experimental data reported in IntAct's records for PubMed 25064736.

B1: Treacle protein (Homo sapiens), Q13428 (parent)
chain: MAEARKRRELLPLIYHHLLRAGYVRAAREVKEQSGQKCFLAQPVTLLDIYTHWQQTSELGRKRKAEEDAALQAKKTRVSDPISTSESSEEEEEAEAETAKATPRLASTNSSVLGADLPSSMKEKAKAETEKAGKTGNSMPHPATGKTVANLLSGKSPRKSAEPSANTTLVSETEEEGSVPAFGAAAKPGMVSAGQADSSSEDTSSSSDETDVEGKPSVKPAQVKASSVSTKESPARKAAPAPGKVGDVTPQVKGGALPPAKRAKKPEEESESSEEGSESEEEAPAGTRSQVKASEKILQVRAASAPAKGTPGKGATPAPPGKAGAVASQTKAGKPEEDSESSSEESSDSEEETPAAKALLQAKASGKTSQVGAASAPAKESPRKGAAPAPPGKTGPAVAKAQAGKREEDSQSSSEESDSEEEAPAQAKPSGKAPQVRAASAPAKESPRKGAAPAPPRKTGPAAAQVQVGKQEEDSRSSSEESDSDREALAAMNAAQVKPLGKSPQVKPASTMGMGPLGKGAGPVPPGKVGPATPSAQVGKWEEDSESSSEESSDSSDGEVPTAVAPAQEKSLGNILQAKPTSSPAKGPPQKAGPVAVQVKAEKPMDNSESSEESSDSADSEEAPAAMTAAQAKPALKIPQTKACPKKTNTTASAKVAPVRVGTQAPRKAGTATSPAGSSPAVAGGTQRPAEDSSSSEESDSEEEKTGLAVTVGQAKSVGKGLQVKAASVPVKGSLGQGTAPVLPGKTGPTVTQVKAEKQEDSESSEEESDSEEAAASPAQVKTSVKKTQAKANPAAARAPSAKGTISAPGKVVTAAAQAKQRSPSKVKPPVRNPQNSTVLARGPASVPSVGKAVATAAQAQTGPEEDSGSSEEESDSEEEAETLAQVKPSGKTHQIRAALAPAKESPRKGAAPTPPGKTGPSAAQAGKQDDSGSSSEESDSDGEAPAAVTSAQVIKPPLIFVDPNRSPAGPAATPAQAQAASTPRKARASESTARSSSSESEDEDVIPATQCLTPGIRTNVVTMPTAHPRIAPKASMAGASSSKESSRISDGKKQEGPATQVSKKNPASLPLTQAALKVLAQKASEAQPPVARTQPSSGVDSAVGTLPATSPQSTSVQAKGTNKLRKPKLPEVQQATKAPESSDDSEDSSDSSSGSEEDGEGPQGAKSAHTLGPTPSRTETLVEETAAESSEDDVVAPSQSLLSGYMTPGLTPANSQASKATPKLDSSPSVSSTLAAKDDPDGKQEAKPQQAAGMLSPKTGGKEAASGTTPQKSRKPKKGAGNPQASTLALQSNITQCLLGQPWPLNEAQVQASVVKVLTELLEQERKKVVDTTKESSRKGWESRKRKLSGDQPAARTPRSKKKKKLGAGEGGEASVSPEKTSTTSKGKAKRDKASGDVKEKKGKGSLGSQGAKDEPEEELQKGMGTVEGGDQSNPKSKKEKKKSDKRKKDKEKKEKKKKAKKASTKDSESPSQKKKKKKKKTAEQTV
B2: Nibrin (Homo sapiens), O60934 (parent)
chain: MWKLLPAAGPAGGEPYRLLTGVEYVVGRKNCAILIENDQSISRNHAVLTANFSVTNLSQTDEIPVLTLKDNSKYGTFVNEEKMQNGFSRTLKSGDGITFGVFGSKFRIEYEPLVACSSCLDVSGKTALNQAILQLGGFTVNNWTEECTHLVMVSVKVTIKTICALICGRPIVKPEYFTEFLKAVESKKQPPQIESFYPPLDEPSIGSKNVDLSGRQERKQIFKGKTFIFLNAKQHKKLSSAVVFGGGEARLITEENEEEHNFFLAPGTCVVDTGITNSQTLIPDCQKKWIQSIMDMLQRQGLRPIPEAEIGLAVIFMTTKNYCDPQGHPSTGLKTTTPGPSLSQGVSVDEKLMPSAPVNTTTYVADTESEQADTWDLSERPKEIKVSKMEQKFRMLSQDAPTVKESCKTSSNNNSMVSNTLAKMRIPNYQLSPTKLPSINKSKDRASQQQQTNSIRNYFQPSTKKRERDEENQEMSSCKSARIETSCSLLEQTQPATPSLWKNKEQHLSENEPVDTNSDNNLFTDTDLKSIVKNSASKSHAAEKLRSNKKREMDDVAIEDEVLEQLFKDTKPELEIDVKVQKQEEDVNVRKRPRMDIETNDTFSDEAVPESSKISQENEIGKKRELKEDSLWSAKEISNNDKLQDDSEMLPKKLLLTEFRSLVIKNSTSRNPSGINDDYGQLKNFKKFKKVTYPGAGKLPHIIGGSDLIAHHARKNTELEEWLRQEMEVQNQHAKEESLADDLFRYNPYLKRRR
partner: B1 chain

Variants of: B1
Conditions: with nbn_human NBN

Row | Variant | effect of a mutation on the interaction
1 | T210A | disrupting interaction strength

Variants of: B2
Conditions: with tcof_human TCOF1, Q13428

Row | Variant | effect of a mutation on the interaction
2 | R28A | disrupting interaction strength

Variants of: B2
Conditions: with tcof_human TCOF1, Q13428
Remark: another data set of the same source

Row | Variant | effect of a mutation on the interaction
3 | R28A;K160M | disrupting interaction strength
